Test results taken from patent US20240409619A1.

Assays:
Test in all cases: cell-based or functional assay
[1] = biological target: SARS-COV-2 spike of variant B.1.351 (Beta) on pseudotyped virus (SARS-COV-2) (UniProt P0DTC2)
[2] = biological target: SARS-COV-2 spike of variant B.1.526 (Iota) on pseudotyped virus (SARS-COV-2) (UniProt P0DTC2)
[3] = biological target: SARS-COV-2 spike of variant B.1.1.7 (Alpha) on pseudotyped virus (SARS-COV-2) (UniProt P0DTC2)
[4] = biological target: SARS-COV-2 spike of variant B.1.617.2 (Delta) on pseudotyped virus (SARS-COV-2) (UniProt P0DTC2)

Substance	fold reduction in ID50, pseudovirus neutralization [1] [fold]	fold reduction in ID50, pseudovirus neutralization [2] [fold]	fold reduction in ID50, pseudovirus neutralization [3] [fold]	fold reduction in ID50, pseudovirus neutralization [4] [fold]	fold change of pseudovirus neutralization against WA1/2020 [1] [fold]
DMAb 2130_FcTM (antibody)	< 3	< 3	< 3	< 3	–
DMAb REGN10987 (antibody)	–	–	–	–	< 3
